Experimental data as given in the supplement of paper PMC10065799, “High-throughput profiling of sequence recognition by tyrosine kinases and SH2 domains using bacterial peptide display” (eLife, 2023).

How the values were obtained:
MERTK = MERTK (UniProt Q12866); assay: phosphorylation enrichment, bacterial display (enrichment ratio); higher = better substrate or ligand; peptides without Tyr show the background
Fer (mouse) = assay: as above
AncSZ = assay: as above
FGFR1 = FGFR1 (UniProt P11362); assay: as above
FGFR3 = FGFR3 (UniProt P22607); assay: as above
Chain of FGFR3 (P22607 whole entry, looked up): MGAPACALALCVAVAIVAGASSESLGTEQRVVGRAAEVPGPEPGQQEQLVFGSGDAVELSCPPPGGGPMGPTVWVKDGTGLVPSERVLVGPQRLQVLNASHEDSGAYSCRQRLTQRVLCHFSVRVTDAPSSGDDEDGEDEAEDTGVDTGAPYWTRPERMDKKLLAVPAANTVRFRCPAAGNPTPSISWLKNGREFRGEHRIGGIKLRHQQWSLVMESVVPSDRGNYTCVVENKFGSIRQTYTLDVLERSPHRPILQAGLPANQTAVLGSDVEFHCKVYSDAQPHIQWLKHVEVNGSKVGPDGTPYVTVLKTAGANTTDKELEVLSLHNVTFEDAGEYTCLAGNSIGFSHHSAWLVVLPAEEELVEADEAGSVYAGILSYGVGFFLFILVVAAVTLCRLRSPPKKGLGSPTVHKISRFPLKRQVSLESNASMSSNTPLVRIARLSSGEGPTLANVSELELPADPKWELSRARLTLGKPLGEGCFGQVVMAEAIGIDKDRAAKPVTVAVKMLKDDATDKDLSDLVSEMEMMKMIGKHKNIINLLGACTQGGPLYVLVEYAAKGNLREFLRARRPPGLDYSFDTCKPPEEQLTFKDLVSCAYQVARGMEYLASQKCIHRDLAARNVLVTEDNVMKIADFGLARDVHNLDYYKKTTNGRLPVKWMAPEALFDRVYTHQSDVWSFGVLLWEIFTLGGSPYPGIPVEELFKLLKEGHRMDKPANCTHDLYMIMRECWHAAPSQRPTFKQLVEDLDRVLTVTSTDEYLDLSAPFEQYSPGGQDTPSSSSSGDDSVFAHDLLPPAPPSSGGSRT

EPHB1 = EPHB1 (UniProt P54762); assay: as above
c-Src = assay: as above
Fes = Fes (UniProt P07332); assay: as above
Chain of Fes (P07332 whole entry, looked up): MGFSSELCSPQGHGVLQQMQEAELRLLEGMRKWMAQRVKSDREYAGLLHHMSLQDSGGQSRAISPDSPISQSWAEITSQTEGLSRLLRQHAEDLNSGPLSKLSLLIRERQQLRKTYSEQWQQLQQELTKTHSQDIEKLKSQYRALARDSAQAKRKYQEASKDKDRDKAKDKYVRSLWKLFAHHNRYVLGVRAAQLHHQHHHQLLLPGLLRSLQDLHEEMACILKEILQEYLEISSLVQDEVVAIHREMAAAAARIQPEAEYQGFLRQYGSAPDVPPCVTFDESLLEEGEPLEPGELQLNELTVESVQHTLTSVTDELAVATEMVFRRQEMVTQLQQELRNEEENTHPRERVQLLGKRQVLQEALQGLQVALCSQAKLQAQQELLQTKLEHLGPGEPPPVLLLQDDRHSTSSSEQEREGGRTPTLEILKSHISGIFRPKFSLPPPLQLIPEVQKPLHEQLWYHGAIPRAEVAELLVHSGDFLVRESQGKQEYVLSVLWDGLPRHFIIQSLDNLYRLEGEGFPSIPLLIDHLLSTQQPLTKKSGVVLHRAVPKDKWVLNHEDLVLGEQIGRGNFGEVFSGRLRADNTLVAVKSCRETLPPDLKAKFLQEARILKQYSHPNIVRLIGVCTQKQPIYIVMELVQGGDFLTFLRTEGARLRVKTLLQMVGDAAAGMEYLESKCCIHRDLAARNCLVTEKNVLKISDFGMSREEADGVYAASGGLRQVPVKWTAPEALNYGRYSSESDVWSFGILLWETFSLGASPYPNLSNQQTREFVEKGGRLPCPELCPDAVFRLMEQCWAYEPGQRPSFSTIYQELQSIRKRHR

Fyn = Fyn (UniProt P06241); assay: as above
Chain of Fyn (P06241 whole entry, looked up): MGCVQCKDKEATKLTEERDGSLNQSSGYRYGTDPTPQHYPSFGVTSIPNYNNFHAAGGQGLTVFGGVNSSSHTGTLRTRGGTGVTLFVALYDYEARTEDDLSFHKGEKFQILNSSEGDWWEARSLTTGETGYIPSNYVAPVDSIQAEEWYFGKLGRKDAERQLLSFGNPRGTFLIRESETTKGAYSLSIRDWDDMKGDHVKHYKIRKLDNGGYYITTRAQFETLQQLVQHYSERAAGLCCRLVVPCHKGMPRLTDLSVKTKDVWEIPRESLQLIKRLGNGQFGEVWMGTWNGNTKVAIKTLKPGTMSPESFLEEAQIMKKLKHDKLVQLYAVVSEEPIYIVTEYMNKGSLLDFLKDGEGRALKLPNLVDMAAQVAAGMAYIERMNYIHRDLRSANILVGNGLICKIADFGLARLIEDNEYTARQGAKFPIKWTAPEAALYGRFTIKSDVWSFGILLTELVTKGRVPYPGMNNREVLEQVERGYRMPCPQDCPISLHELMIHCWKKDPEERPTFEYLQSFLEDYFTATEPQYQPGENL

Hck = Hck (UniProt P08631); assay: as above
Chain of Hck (P08631 whole entry, looked up): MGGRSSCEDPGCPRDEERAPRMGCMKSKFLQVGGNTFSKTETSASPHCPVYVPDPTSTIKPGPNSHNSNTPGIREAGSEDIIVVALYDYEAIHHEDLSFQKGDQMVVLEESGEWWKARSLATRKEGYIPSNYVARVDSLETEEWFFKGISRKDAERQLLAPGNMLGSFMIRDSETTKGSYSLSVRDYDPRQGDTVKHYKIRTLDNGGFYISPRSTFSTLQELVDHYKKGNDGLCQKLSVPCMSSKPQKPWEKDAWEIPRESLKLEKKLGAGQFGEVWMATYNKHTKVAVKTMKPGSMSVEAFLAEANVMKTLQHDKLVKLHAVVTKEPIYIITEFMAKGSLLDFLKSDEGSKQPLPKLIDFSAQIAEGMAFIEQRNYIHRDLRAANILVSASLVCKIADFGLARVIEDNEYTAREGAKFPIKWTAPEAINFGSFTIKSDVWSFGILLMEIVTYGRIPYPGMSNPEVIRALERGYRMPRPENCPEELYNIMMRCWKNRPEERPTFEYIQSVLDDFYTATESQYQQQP

c-Abl (mouse) = assay: as above
EPHB2 = EPHB2 (UniProt P29323); assay: as above
Jak2 = Jak2 (UniProt O60674); assay: as above
Chain of Jak2 (O60674 whole entry, looked up): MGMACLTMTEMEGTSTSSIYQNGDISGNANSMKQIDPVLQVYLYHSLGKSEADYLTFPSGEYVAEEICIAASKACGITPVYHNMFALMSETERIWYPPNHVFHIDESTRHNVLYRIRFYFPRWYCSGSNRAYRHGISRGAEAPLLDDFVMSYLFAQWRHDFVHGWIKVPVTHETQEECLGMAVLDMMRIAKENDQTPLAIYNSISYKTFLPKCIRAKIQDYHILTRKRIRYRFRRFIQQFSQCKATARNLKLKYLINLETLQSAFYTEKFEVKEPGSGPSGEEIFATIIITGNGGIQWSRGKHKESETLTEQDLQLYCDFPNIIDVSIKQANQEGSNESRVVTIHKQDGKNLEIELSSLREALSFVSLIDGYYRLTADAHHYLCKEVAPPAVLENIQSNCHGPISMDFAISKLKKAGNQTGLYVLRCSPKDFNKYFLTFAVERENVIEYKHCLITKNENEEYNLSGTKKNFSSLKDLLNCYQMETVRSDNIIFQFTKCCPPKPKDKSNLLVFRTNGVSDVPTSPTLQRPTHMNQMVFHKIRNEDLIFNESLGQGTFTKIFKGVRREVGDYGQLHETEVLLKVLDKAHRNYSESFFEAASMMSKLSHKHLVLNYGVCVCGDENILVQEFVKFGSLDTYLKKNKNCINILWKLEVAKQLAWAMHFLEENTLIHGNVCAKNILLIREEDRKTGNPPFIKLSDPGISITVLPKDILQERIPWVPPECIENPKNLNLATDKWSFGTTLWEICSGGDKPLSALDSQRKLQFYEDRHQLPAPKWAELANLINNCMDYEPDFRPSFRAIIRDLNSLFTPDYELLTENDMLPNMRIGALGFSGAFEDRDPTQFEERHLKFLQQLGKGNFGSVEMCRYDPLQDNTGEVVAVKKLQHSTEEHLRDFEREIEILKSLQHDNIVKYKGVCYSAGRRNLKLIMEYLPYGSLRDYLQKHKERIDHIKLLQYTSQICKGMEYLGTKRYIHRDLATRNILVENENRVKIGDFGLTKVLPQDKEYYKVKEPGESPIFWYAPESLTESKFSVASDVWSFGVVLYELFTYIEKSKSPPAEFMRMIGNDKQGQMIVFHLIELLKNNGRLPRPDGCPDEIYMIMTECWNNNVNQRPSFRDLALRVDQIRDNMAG

SHP2-C SH2 = assay: SH2 binding enrichment of the phosphorylated peptide, bacterial display (enrichment ratio); higher = better substrate or ligand; peptides without Tyr show the background
Grb2 SH2 = Grb2 SH2 (UniProt P62993); assay: as above
c-Src SH2 = assay: as above
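Throughout, for SH2 binding enrichment of the phosphorylated peptide, bacterial display: peptide library displayed on the E. coli surface as eCPX fusions, selected cells deep-sequenced, score is each peptide's frequency after selection divided by its frequency in the input.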
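Throughout, for phosphorylation enrichment, bacterial display: 11-residue human phosphosite peptides and single-mutation variants displayed on the E. coli surface, counted by deep sequencing, each peptide's frequency after selection divided by its frequency in the unselected input library; frequency after pTyr selection over input frequency; kinase dosed for 20-30% of maximal phosphorylation in three min.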

Chain of MERTK (Q12866 whole entry, looked up): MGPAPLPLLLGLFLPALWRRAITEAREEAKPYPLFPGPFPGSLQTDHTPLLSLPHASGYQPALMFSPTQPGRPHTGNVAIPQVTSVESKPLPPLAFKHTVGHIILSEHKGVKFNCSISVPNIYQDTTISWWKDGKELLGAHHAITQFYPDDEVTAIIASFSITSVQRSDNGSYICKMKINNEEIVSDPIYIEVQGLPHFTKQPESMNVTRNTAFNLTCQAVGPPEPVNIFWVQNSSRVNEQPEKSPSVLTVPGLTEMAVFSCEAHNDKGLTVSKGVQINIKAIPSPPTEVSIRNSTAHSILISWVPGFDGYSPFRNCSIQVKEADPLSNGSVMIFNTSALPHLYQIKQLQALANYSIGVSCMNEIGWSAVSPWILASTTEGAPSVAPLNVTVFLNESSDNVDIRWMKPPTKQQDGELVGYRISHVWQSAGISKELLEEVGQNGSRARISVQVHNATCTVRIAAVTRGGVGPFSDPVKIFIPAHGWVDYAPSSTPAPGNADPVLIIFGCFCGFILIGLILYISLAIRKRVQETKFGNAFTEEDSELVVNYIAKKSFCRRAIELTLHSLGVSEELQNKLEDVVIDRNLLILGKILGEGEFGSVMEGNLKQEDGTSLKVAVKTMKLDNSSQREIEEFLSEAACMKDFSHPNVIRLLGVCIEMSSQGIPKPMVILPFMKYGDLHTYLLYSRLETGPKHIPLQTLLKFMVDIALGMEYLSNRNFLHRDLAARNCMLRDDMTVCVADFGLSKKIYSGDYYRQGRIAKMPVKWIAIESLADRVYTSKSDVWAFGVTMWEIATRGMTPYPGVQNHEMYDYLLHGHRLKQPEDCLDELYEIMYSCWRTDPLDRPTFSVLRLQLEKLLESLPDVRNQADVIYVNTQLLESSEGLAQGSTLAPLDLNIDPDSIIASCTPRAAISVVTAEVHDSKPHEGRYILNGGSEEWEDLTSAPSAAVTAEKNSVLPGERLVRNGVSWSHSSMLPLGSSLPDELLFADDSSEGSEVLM

Sequence | SH2 binding enrichment (SHP2-C SH2) | SH2 binding enrichment (Grb2 SH2) | SH2 binding enrichment (c-Src SH2) | phosphorylation enrichment (MERTK) | phosphorylation enrichment (Fer (mouse)) | phosphorylation enrichment (AncSZ) | phosphorylation enrichment (FGFR1) | phosphorylation enrichment (FGFR3) | phosphorylation enrichment (EPHB1) | phosphorylation enrichment (c-Src) | phosphorylation enrichment (Fes) | phosphorylation enrichment (Fyn) | phosphorylation enrichment (Hck) | phosphorylation enrichment (c-Abl (mouse)) | phosphorylation enrichment (EPHB2) | phosphorylation enrichment (Jak2)
DRPASYLEKVR [KRT13_Y118_L115P] | 1.03 | 1.08 | 0.579 | 0.342 | 0.276 | 0.438 | 0.3 | 0.404 | 0.307 | 0.362 | 0.605 | 0.299 | 0.284 | 0.441 | 0.247 | 0.43
SENAFYLSPDI [COL6A3_Y2827] | 0.698 | 0.739 | 0.475 | 0.754 | 0.724 | 1.69 | 0.762 | 0.841 | 0.793 | 0.607 | 1.21 | 0.607 | 0.687 | 1.49 | 0.687 | 1.68
EIIPFYGMSSY [FNDC3B_Y175_T179S] | 0.828 | 0.855 | 6.51 | 0.728 | 0.933 | 0.877 | 0.489 | 0.672 | 0.6 | 0.616 | 0.914 | 0.777 | 0.967 | 0.587 | 0.77 | 0.748
NPETCYQKLKK [TK2_Y190_R192K] | 0.814 | 0.829 | 0.783 | 0.386 | 0.509 | 0.906 | 0.444 | 0.774 | 0.583 | 0.425 | 1.07 | 0.428 | 0.583 | 0.765 | 0.451 | 0.921
VECRVYAEDPF [PCCA_Y401_YF] | 0.426 | 0.674 | 0.54 | 0.481 | 0.669 | 1.43 | 0.495 | 0.845 | 0.766 | 0.693 | 1.68 | 0.553 | 0.578 | 1.11 | 0.677 | 1.6
QLQQAYQEAFE [YWHAZ_Y149_S145L] | 1.07 | 0.83 | 2.03 | 1.29 | 1.72 | 2.59 | 1.76 | 3.04 | 1.43 | 1.12 | 2.69 | 1.23 | 1.67 | 1.6 | 1.69 | 1.77
EDGCIYPGTIA [SMN1_Y109_A111G] | 0.699 | 0.915 | 0.619 | 0.529 | 0.555 | 0.947 | 0.553 | 0.856 | 0.7 | 0.567 | 1.25 | 0.595 | 0.552 | 0.868 | 0.613 | 1.04
GHNDVYILEHV [GRIN2A_Y1423_S1425L] | 0.755 | 0.717 | 0.48 | 0.378 | 0.567 | 0.861 | 0.43 | 0.594 | 0.452 | 2.94 | 1.03 | 4.4 | 1.04 | 0.54 | 0.518 | 0.668
FDNSVYQKTTE [LDLR_Y828_P826S] | 0.559 | 0.808 | 0.768 | 0.432 | 0.374 | 0.924 | 0.51 | 0.641 | 0.487 | 0.657 | 0.913 | 0.515 | 0.668 | 0.701 | 0.488 | 0.673
FDDDDYDTDFV [BLM_Y296] | 0.702 | 0.803 | 0.555 | 0.509 | 0.531 | 1.26 | 0.586 | 0.78 | 0.662 | 0.494 | 1.14 | 0.563 | 0.538 | 0.767 | 0.549 | 0.958
VRTSKYRGGGG [HBA1_Y141_L137R] | 0.571 | 0.602 | 0.353 | 0.648 | 0.365 | 0.64 | 0.423 | 0.618 | 0.366 | 0.542 | 0.676 | 0.426 | 0.424 | 0.637 | 0.407 | 0.609

More lines, main results first:

SH2 binding enrichment (SHP2-C SH2) | SH2 binding enrichment (Grb2 SH2) | SH2 binding enrichment (c-Src SH2) | Sequence | phosphorylation enrichment (MERTK) | phosphorylation enrichment (Fer (mouse)) | phosphorylation enrichment (AncSZ) | phosphorylation enrichment (FGFR1) | phosphorylation enrichment (FGFR3) | phosphorylation enrichment (EPHB1) | phosphorylation enrichment (c-Src) | phosphorylation enrichment (Fes) | phosphorylation enrichment (Fyn) | phosphorylation enrichment (Hck) | phosphorylation enrichment (c-Abl (mouse)) | phosphorylation enrichment (EPHB2) | phosphorylation enrichment (Jak2)
0.809 | 0.952 | 0.574 | KLLPEYPGVLS [DHFR2_Y163] | 0.385 | 0.493 | 0.685 | 0.379 | 0.564 | 0.349 | 0.458 | 0.657 | 0.46 | 0.491 | 0.497 | 0.399 | 0.598
0.632 | 0.935 | 0.591 | MCITQYERESQ [PRNP_Y218] | 0.485 | 0.453 | 0.837 | 0.491 | 0.557 | 0.419 | 0.394 | 0.895 | 0.496 | 0.447 | 0.648 | 0.495 | 0.654
0.611 | 0.934 | 0.534 | PGLSSYGVPGS [FLNB_Y1530_A1534G] | 0.622 | 0.508 | 0.774 | 0.623 | 0.643 | 0.494 | 0.454 | 0.786 | 0.598 | 0.543 | 0.715 | 0.578 | 0.355
0.862 | 1.19 | 0.554 | RTESQYQENRG [LRCH3_Y354_R350T] | 0.688 | 0.539 | 0.792 | 0.499 | 0.591 | 0.675 | 0.557 | 1 | 0.578 | 0.653 | 0.799 | 0.414 | 1.26
1.33 | 0.887 | 0.505 | ARMTNYGLPRF [TSPAN12_Y138_YF] | 0.511 | 0.409 | 0.547 | 0.42 | 0.501 | 0.424 | 0.519 | 0.636 | 0.401 | 0.413 | 0.496 | 0.542 | 0.503
